# Test results from US20190381169A1, “PHARMACEUTICAL COMBINATIONS FOR IMMUNOTHERAPY” (Technische Universitat Dresden, priority 2014, published 2019).
# Entries after “also recorded” stand apart in the source; their conditions may differ.
# Molecular target: T1, p75^NTR (Homo sapiens, UniProt P08138)
# T1 sequence (P08138 29-427): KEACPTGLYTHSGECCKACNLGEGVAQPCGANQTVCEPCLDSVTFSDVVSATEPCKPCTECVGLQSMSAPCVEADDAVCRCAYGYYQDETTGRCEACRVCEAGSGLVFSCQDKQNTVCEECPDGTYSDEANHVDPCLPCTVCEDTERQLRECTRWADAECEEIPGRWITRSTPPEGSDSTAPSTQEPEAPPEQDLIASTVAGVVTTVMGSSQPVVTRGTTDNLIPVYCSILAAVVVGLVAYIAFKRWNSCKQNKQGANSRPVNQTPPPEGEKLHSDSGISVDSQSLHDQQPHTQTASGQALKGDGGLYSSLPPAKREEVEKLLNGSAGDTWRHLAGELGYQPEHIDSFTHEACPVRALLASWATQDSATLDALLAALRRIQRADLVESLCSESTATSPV
# Test: Antigen mediated proliferation and cytokine secretion of CD4+ T-cells co-cultured with autologous PDC of allergic donors
# Format: cell-based
# Set-up: nerve growth factor receptor p75^NTR, which is expressed by human and murine plasmacytoid dendritic cells (PDC); endogenous in cells; host or cells: primary human plasmacytoid dendritic cells (BDCA-4+ selection) from buffy coats or from peripheral blood of allergic donors
# Method: CD4^+ T helper cells and PDC used in antigen mediated autologous CD4^+ T-cell proliferation assays were purified from peripheral blood (80 ml) obtained from specified donors who are known to have allergy against certain allergens. Peripheral blood was drawn in tubes containing Li-Heparin as anti-coagulant (S-Monovette Li-Heparin 7.5 ml, Sarstedt). CD4^+ T helper cells were purified from peripheral blood mononuclear cells by negative selection using CD4^+ T-cell isolation kit II (Miltenyi Biotec), as per manufacturer's instructions with slight modifications. Briefly, the cell pellet was re-suspended in 50 μl PBS E/B. Then 12 μl of Biotin-labelled antibody cocktail per 10^7 total cells were added and the cell suspension was incubated at 4° C. for 15 minutes. 50 μl of PBS E/B was added followed by addition of 25 μl of anti-biotin microbeads per 10^7 total cells. Cells were incubated at 4° C. for another 20 minutes, followed by washing with 10 ml PBS E/B and centrifugation (470 g for 6 minutes). […] The purity of isolated CD4^+ T helper cells was over 95% as assessed by flow cytometric analysis after co-staining with monoclonal mouse anti human CD3-PE (BD Biosciences) and monoclonal mouse anti human CD4-FITC (BD Biosciences). […]
# Purified CD4^+ T helper cells (see above) were washed once with PBS. […] Cell number was determined.
# Antigen mediated CD4^+ T helper cell proliferation responses were assayed using purified and CFSE labelled CD4^+ T helper cells in co-culture with purified PDC/BDAC4^+ cells. […] After 5 days of co-culture, supernatant was analyzed for Th1/Th2 cytokines by using BD cytokine bead array (CBA) Human Th1/Th2 cytokine kit (BD Biosciences) and percentages of proliferating CFSE-low CD4^+ T-cells were analyzed by flow cytometry.
# The concentrations of IL-2, IL-4, IL-5, IL-10, IFNγ and TNFα in the supernatant were determined by using the CBA kit following manufacturer's instruction with modification in data analysis using Microsoft Excel. […]
substance,measurement,setting,value
"NGF: Nerve growth factor, best characterized neurotrophin; natural p75^NTR agonist (R&D Systems)",secretion of IL-2 and IL-5,"CD4+ T-cell/PDC co-culture with allergen, NGF vs without NGF",dose-dependent increased secretion; also recorded: increasing secretion
same,antigen (allergen) mediated CD4+ T-cells proliferation (CFSE),"co-culture with autologous PDC plus specific allergen, NGF (25 ng/ml elsewhere in the source) vs without NGF, 5 days",significantly increased; also recorded: increased proliferation
same,proliferation of T-cells on its own (without PDC co-culture),with or without antigen plus minus NGF or with NGF alone,did not show any proliferation
